From publication PMC3320765 (Biochemistry, 2012)
Values belong to the binder of their own block, whether it stands above or below them.

Target: HIRA(1–405), untagged (HIRA WD repeats) (human, UniProt P54198 1-405)
Assay: AUC

Chain of HIRA(1–405), untagged (HIRA WD repeats) (P54198 1-405): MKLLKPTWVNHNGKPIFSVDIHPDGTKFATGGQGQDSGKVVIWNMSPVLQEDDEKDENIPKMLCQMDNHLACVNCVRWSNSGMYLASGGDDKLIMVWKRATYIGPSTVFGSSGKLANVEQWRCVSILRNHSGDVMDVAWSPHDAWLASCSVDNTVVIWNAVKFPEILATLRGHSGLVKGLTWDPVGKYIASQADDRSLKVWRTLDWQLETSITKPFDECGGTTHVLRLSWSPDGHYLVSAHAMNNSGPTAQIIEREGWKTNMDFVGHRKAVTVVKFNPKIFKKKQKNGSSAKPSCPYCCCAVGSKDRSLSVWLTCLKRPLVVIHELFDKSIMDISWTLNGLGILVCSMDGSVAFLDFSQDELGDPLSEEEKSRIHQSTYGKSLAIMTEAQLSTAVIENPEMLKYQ

Kd: 6.5 nM
B1: 6His-UBN1(41–119) (domain or fragment, human, UniProt Q9NPG3 41-119, looked up)
chain: AAAAVRITLTLFEPDHKRCPEFFYPELVKNIRGKVKGLQPGDKKKDLSDPFNDEEKERHKVEALARKFEEKYGGKKRRK

Kd: 13.3 nM
B2: 6His-UBN1(41–175) (domain or fragment, human, UniProt Q9NPG3 41-175, looked up)
chain: AAAAVRITLTLFEPDHKRCPEFFYPELVKNIRGKVKGLQPGDKKKDLSDPFNDEEKERHKVEALARKFEEKYGGKKRRKDRIQDLIDMGYGYDESDSFIDNSEAYDELVPASLTTKYGGFYINSGTLQFRQASES
